Measurements taken from the Human Domainome abundance scans (Beltran et al. 2025).
± gives the uncertainty stated by the source.

Assay: abundance fitness (aPCA) (normalised: wild type 0, dead -1); higher = more abundant; growth selection in yeast, the domain comes from the species named
Details: Homo sapiens

Substance | abundance fitness
SAFB-like transcription modulator Q54L, Q9NWH9 | 0 ± 0.072
SAFB-like transcription modulator Q54M, Q9NWH9 | -0.009 ± 0.1
SAFB-like transcription modulator Q54N, Q9NWH9 | -0.037 ± 0.24
SAFB-like transcription modulator Q54P, Q9NWH9 | -0.666 ± 0.3
SAFB-like transcription modulator Q54R, Q9NWH9 | -0.106 ± 0.045
SAFB-like transcription modulator Q54S, Q9NWH9 | -0.526 ± 0.1
SAFB-like transcription modulator Q54T, Q9NWH9 | 0.146 ± 0.09
SAFB-like transcription modulator Q54V, Q9NWH9 | -0.209 ± 0.078
SAFB-like transcription modulator Q54W, Q9NWH9 | -0.043 ± 0.08
SAFB-like transcription modulator Q54Y, Q9NWH9 | -0.497 ± 0.27
SAFB-like transcription modulator R26A, Q9NWH9 | -0.12 ± 0.1
SAFB-like transcription modulator R26C, Q9NWH9 | -0.57 ± 0.14
SAFB-like transcription modulator R26D, Q9NWH9 | 0.033 ± 0.15
SAFB-like transcription modulator R26E, Q9NWH9 | -0.191 ± 0.11
SAFB-like transcription modulator R26F, Q9NWH9 | -0.268 ± 0.065
SAFB-like transcription modulator R26G, Q9NWH9 | -0.19 ± 0.08
SAFB-like transcription modulator R26H, Q9NWH9 | -0.322 ± 0.23
SAFB-like transcription modulator R26K, Q9NWH9 | -0.389 ± 0.14
SAFB-like transcription modulator R26L, Q9NWH9 | -0.131 ± 0.078
SAFB-like transcription modulator R26M, Q9NWH9 | -0.098 ± 0.092
SAFB-like transcription modulator R26P, Q9NWH9 | -0.126 ± 0.14
SAFB-like transcription modulator R26Q, Q9NWH9 | -0.502 ± 0.17
SAFB-like transcription modulator R26S, Q9NWH9 | -0.011 ± 0.071
SAFB-like transcription modulator R26T, Q9NWH9 | -0.302 ± 0.12
SAFB-like transcription modulator R26V, Q9NWH9 | -0.365 ± 0.085
SAFB-like transcription modulator R26W, Q9NWH9 | -0.627 ± 0.1

Substance | abundance fitness
SAFB-like transcription modulator R26Y, Q9NWH9 | -0.579 ± 0.27
SAFB-like transcription modulator R36S, Q9NWH9 | -0.048 ± 0.42
SAFB-like transcription modulator R37A, Q9NWH9 | -1.09 ± 0.091
SAFB-like transcription modulator R37C, Q9NWH9 | -0.921 ± 0.052
SAFB-like transcription modulator R37D, Q9NWH9 | -0.621 ± 0.052
SAFB-like transcription modulator R37E, Q9NWH9 | -0.694 ± 0.036
SAFB-like transcription modulator R37G, Q9NWH9 | -0.912 ± 0.047
SAFB-like transcription modulator R37H, Q9NWH9 | -0.648 ± 0.066
SAFB-like transcription modulator R37I, Q9NWH9 | -1.07 ± 0.16
SAFB-like transcription modulator R37K, Q9NWH9 | -0.283 ± 0.098
SAFB-like transcription modulator R37L, Q9NWH9 | -0.71 ± 0.045
SAFB-like transcription modulator R37M, Q9NWH9 | -0.601 ± 0.064
SAFB-like transcription modulator R37N, Q9NWH9 | -1.12 ± 0.17
SAFB-like transcription modulator R37P, Q9NWH9 | -0.658 ± 0.094
SAFB-like transcription modulator R37Q, Q9NWH9 | -0.575 ± 0.13
SAFB-like transcription modulator R37S, Q9NWH9 | -0.845 ± 0.057
SAFB-like transcription modulator R37T, Q9NWH9 | -0.751 ± 0.078
SAFB-like transcription modulator R37V, Q9NWH9 | -1.06 ± 0.08
SAFB-like transcription modulator R37W, Q9NWH9 | -1.26 ± 0.071
SAFB-like transcription modulator R37Y, Q9NWH9 | -0.722 ± 0.16
SAFB-like transcription modulator R51A, Q9NWH9 | -0.437 ± 0.077
SAFB-like transcription modulator R51D, Q9NWH9 | -0.783 ± 0.4
SAFB-like transcription modulator R51F, Q9NWH9 | -1.21 ± 0.38
SAFB-like transcription modulator R51G, Q9NWH9 | -0.574 ± 0.078
SAFB-like transcription modulator R51H, Q9NWH9 | -0.814 ± 0.27
SAFB-like transcription modulator R51I, Q9NWH9 | -0.542 ± 0.22

Substance | abundance fitness
SAFB-like transcription modulator R51K, Q9NWH9 | -0.2 ± 0.065
SAFB-like transcription modulator R51L, Q9NWH9 | -0.753 ± 0.068
SAFB-like transcription modulator R51M, Q9NWH9 | -0.506 ± 0.051
SAFB-like transcription modulator R51N, Q9NWH9 | -0.403 ± 0.037
SAFB-like transcription modulator R51P, Q9NWH9 | -0.699 ± 0.13
SAFB-like transcription modulator R51S, Q9NWH9 | -0.511 ± 0.063
SAFB-like transcription modulator R51T, Q9NWH9 | -0.57 ± 0.13
SAFB-like transcription modulator R51V, Q9NWH9 | -0.73 ± 0.19
SAFB-like transcription modulator R51W, Q9NWH9 | -1.1 ± 0.085
SAFB-like transcription modulator R51Y, Q9NWH9 | -1.01 ± 0.35
SAFB-like transcription modulator S32A, Q9NWH9 | -0.147 ± 0.062
SAFB-like transcription modulator S32C, Q9NWH9 | -0.309 ± 0.067
SAFB-like transcription modulator S32D, Q9NWH9 | 0.156 ± 0.073
SAFB-like transcription modulator S32E, Q9NWH9 | -0.03 ± 0.05
SAFB-like transcription modulator S32F, Q9NWH9 | -0.125 ± 0.036
SAFB-like transcription modulator S32G, Q9NWH9 | -0.077 ± 0.051
SAFB-like transcription modulator S32H, Q9NWH9 | -0.031 ± 0.055
SAFB-like transcription modulator S32K, Q9NWH9 | -0.246 ± 0.085
SAFB-like transcription modulator S32L, Q9NWH9 | -0.024 ± 0.04
SAFB-like transcription modulator S32M, Q9NWH9 | -0.051 ± 0.044
SAFB-like transcription modulator S32N, Q9NWH9 | -0.407 ± 0.11
SAFB-like transcription modulator S32P, Q9NWH9 | -0.768 ± 0.058
SAFB-like transcription modulator S32Q, Q9NWH9 | -0.325 ± 0.097
SAFB-like transcription modulator S32R, Q9NWH9 | -0.176 ± 0.045
SAFB-like transcription modulator S32T, Q9NWH9 | -0.048 ± 0.068
SAFB-like transcription modulator S32V, Q9NWH9 | -0.023 ± 0.051

Substance | abundance fitness
SAFB-like transcription modulator S32W, Q9NWH9 | -0.108 ± 0.049
SAFB-like transcription modulator S32Y, Q9NWH9 | -0.173 ± 0.09
SAFB-like transcription modulator S50A, Q9NWH9 | 0.015 ± 0.037
SAFB-like transcription modulator S50C, Q9NWH9 | -0.342 ± 0.082
SAFB-like transcription modulator S50D, Q9NWH9 | -0.109 ± 0.065
SAFB-like transcription modulator S50E, Q9NWH9 | 0.087 ± 0.075
SAFB-like transcription modulator S50F, Q9NWH9 | -0.253 ± 0.052
SAFB-like transcription modulator S50G, Q9NWH9 | 0.028 ± 0.039
SAFB-like transcription modulator S50H, Q9NWH9 | -0.353 ± 0.47
SAFB-like transcription modulator S50I, Q9NWH9 | -0.514 ± 0.29
SAFB-like transcription modulator S50K, Q9NWH9 | -0.111 ± 0.083
SAFB-like transcription modulator S50L, Q9NWH9 | -0.055 ± 0.075
SAFB-like transcription modulator S50P, Q9NWH9 | -0.521 ± 0.14
SAFB-like transcription modulator S50Q, Q9NWH9 | -0.486 ± 0.22
SAFB-like transcription modulator S50R, Q9NWH9 | -0.037 ± 0.062
SAFB-like transcription modulator S50V, Q9NWH9 | -0.38 ± 0.072
SAFB-like transcription modulator T23A, Q9NWH9 | -0.063 ± 0.035
SAFB-like transcription modulator T23C, Q9NWH9 | -0.083 ± 0.042
SAFB-like transcription modulator T23D, Q9NWH9 | -0.093 ± 0.041
SAFB-like transcription modulator T23E, Q9NWH9 | -0.001 ± 0.034
SAFB-like transcription modulator T23F, Q9NWH9 | -0.127 ± 0.035
SAFB-like transcription modulator T23G, Q9NWH9 | -0.072 ± 0.034
SAFB-like transcription modulator T23H, Q9NWH9 | -0.281 ± 0.034
SAFB-like transcription modulator T23I, Q9NWH9 | -0.019 ± 0.033
SAFB-like transcription modulator T23L, Q9NWH9 | -0.184 ± 0.031
